Experimental data published in FireProtDB (doi:10.1016/0141-8130(95)93517-2).

Details: Armoracia rusticana, CD, reversible: yes, whole UniProt chain shown
[1] = pH 3.2, 22 °C, GdnHCl, glycine 50 mM
[2] = pH 3.2, 22 °C, Urea, glycine 50 mM
[3] = pH 3.2, 25 °C, GdnHCl, glycine 50 mM
[4] = pH 3.2, 25 °C, Urea, glycine 50 mM
[5] = pH 3.2, 27 °C, GdnHCl, glycine 50 mM
[6] = pH 3.2, 27 °C, Urea, glycine 50 mM
[7] = pH 3.2, 30 °C, GdnHCl, glycine 50 mM
[8] = pH 3.2, 30 °C, Urea, glycine 50 mM
[9] = pH 6.4, 22 °C, GdnHCl, sodium phosphate 2.5 mM
[10] = pH 6.4, 22 °C, Urea, sodium phosphate 2.5 mM
[11] = pH 6.4, 25 °C, GdnHCl, sodium phosphate 2.5 mM
[12] = pH 6.4, 25 °C, Urea, sodium phosphate 2.5 mM
[13] = pH 6.4, 27 °C, GdnHCl, sodium phosphate 2.5 mM
[14] = pH 6.4, 27 °C, Urea, sodium phosphate 2.5 mM
[15] = pH 6.4, 30 °C, GdnHCl, sodium phosphate 2.5 mM
[16] = pH 6.4, 30 °C, Urea, sodium phosphate 2.5 mM
[17] = pH 10, 22 °C, GdnHCl, glycine 50 mM
[18] = pH 10, 22 °C, Urea, glycine 50 mM
[19] = pH 10, 25 °C, GdnHCl, glycine 50 mM
[20] = pH 10, 25 °C, Urea, glycine 50 mM
[21] = pH 10, 27 °C, GdnHCl, glycine 50 mM
[22] = pH 10, 27 °C, Urea, glycine 50 mM
[23] = pH 10, 30 °C, GdnHCl, glycine 50 mM
[24] = pH 10, 30 °C, Urea, glycine 50 mM

B1: Peroxidase C2 wild type, P17179 (protein)
chain: MHSSSSLIKLGFLLLLLNVSLSHAQLSPSFYDKTCPQVFDIATNTIKTALRSDPRIAASILRLHFHDCFVNGCDASILLDNTTSFRTEKDAFGNARSARGFDVIDTMKAAVEKACPKTVSCADLLAIAAQKSVVLAGGPSWKVPSGRRDSLRGFMDLANDNLPGPSSTLQVLKDKFRNVGLDRPSDLVALSGGHTFGKNQCQFIMDRLYNFSNSGKPDPTLDKSYLSTLRKQCPRNGNLSVLVDFDLRTPTIFDNKYYVNLKENKGLIQSDQELFSSPDASDTIPLVRAYADGQGKFFDAFVEAMIRMGNLSPSTGKQGEIRLNCRVVNSKPKIMDVVDTNDFASSI
- denaturant m value [1]: 2.86 kcal/mol/M
- unfolding free energy [1]: 6.75 kcal/mol
- denaturant m value [2]: 1.23 kcal/mol/M
- unfolding free energy [2]: 6.42 kcal/mol
- denaturant m value [3]: 2.94 kcal/mol/M
- unfolding free energy [3]: 6.25 kcal/mol
- denaturant m value [4]: 1.26 kcal/mol/M
- unfolding free energy [4]: 5.94 kcal/mol
- denaturant m value [5]: 2.99 kcal/mol/M
- unfolding free energy [5]: 5.68 kcal/mol
- denaturant m value [6]: 1.31 kcal/mol/M
- unfolding free energy [6]: 5.63 kcal/mol
- denaturant m value [7]: 3.2 kcal/mol/M
- unfolding free energy [7]: 4.98 kcal/mol
- denaturant m value [8]: 1.37 kcal/mol/M
- unfolding free energy [8]: 5.18 kcal/mol
- denaturant m value [9]: 4.75 kcal/mol/M
- unfolding free energy [9]: 6.68 kcal/mol
- denaturant m value [10]: 2.02 kcal/mol/M
- unfolding free energy [10]: 6.45 kcal/mol
- denaturant m value [11]: 4.9 kcal/mol/M
- unfolding free energy [11]: 6.38 kcal/mol
- denaturant m value [12]: 2.06 kcal/mol/M
- unfolding free energy [12]: 5.94 kcal/mol
- denaturant m value [13]: 5.08 kcal/mol/M
- unfolding free energy [13]: 6.22 kcal/mol
- denaturant m value [14]: 2.11 kcal/mol/M
- unfolding free energy [14]: 5.87 kcal/mol
- denaturant m value [15]: 5.16 kcal/mol/M
- unfolding free energy [15]: 5.62 kcal/mol
- denaturant m value [16]: 2.18 kcal/mol/M
- unfolding free energy [16]: 5.69 kcal/mol
- denaturant m value [17]: 2.85 kcal/mol/M
- unfolding free energy [17]: 6.7 kcal/mol
- denaturant m value [18]: 1.28 kcal/mol/M
- unfolding free energy [18]: 6.71 kcal/mol
- denaturant m value [19]: 2.99 kcal/mol/M
- unfolding free energy [19]: 6.4 kcal/mol
- denaturant m value [20]: 1.3 kcal/mol/M
- unfolding free energy [20]: 6.36 kcal/mol
- denaturant m value [21]: 3.11 kcal/mol/M
- unfolding free energy [21]: 5.87 kcal/mol
- denaturant m value [22]: 1.37 kcal/mol/M
- unfolding free energy [22]: 6.04 kcal/mol
- denaturant m value [23]: 3.17 kcal/mol/M
- unfolding free energy [23]: 5.23 kcal/mol
- denaturant m value [24]: 1.4 kcal/mol/M
- unfolding free energy [24]: 5.54 kcal/mol
